The target in assay [1] is T1, SLC39A5^369–380 peptide, Q6ZMH5.
T1 chain: GHQGHSHGHQGGY
The assay is described as follows: ITC. To be noted: chain shown with the change;; parent: 9.0 µM.

The target in another assay is METTL9^M6 R214A (human) (UniProt Q9H1A3). The assay is described as follows: ITC; METTL9 protein and synthetic peptide; conditions and who was titrated not shown. (Isothermal titration calorimetry measures the heat released or taken up as one component is titrated into another.)

B1: METTL9^M6 (METTL9^46–318 with six mutations), Q9H1A3 R214A (protein)
chain: HMAAGGRKENHQWYVCNREKLCESLQAVFVQSYLDQGTQIFLNNSIEKSGWAAIQAYHSAVSSAFSLAMSRTSINGLLGRGSMFVFSPDQFQRLLKINPDWKTHRLLDLGAGDGEVTKIMSPHFEEIYATELSETMIWQLQKKKYRVLGINEWQNTGFQYDVISCLNLLDACDQPLTLLKDIRSVLEPTRGRVILALVLPFHPYVENVGGKWEKPSEILEIKGQNWEEQVNSLPEVFRKAGFVIEAFTRLPYLCEGDMYNDYYVLDDAVFVLKPV
By Kd is commonly meant the constant that tells how readily two partners part at equilibrium. In the case of B1, in assay [1], the equilibrium dissociation constant (Kd) came to 51 µM.

Molecule GHQGHSHGHQGGY [SLC39A5^369–380 peptide] registered a fold weaker binding affinity than METTL9^M6 with METTL9^M6 R214A (human) of 5 fold.

These data come from article PMC10073072.
